Among the data in article PMC7652391 are stoichiometry N values, retold here.

In the assay the target is Mature human mitochondrial heat shock protein family D member 1 (HSPD1) (human), P10809. The experiment in a line: cryo-EM structure; single-particle cryoEM of reconstituted oligomeric HSPD1; grids by TED (6 and 50 ms), chameleon (54 ms) and Vitrobot (6 s blot); 50 mM Tris, 300 mM NaCl, 10 mM MgCl2 pH 8; consensus reconstructions in C1 and C7 symmetry. The note with it: remark: other sources report otherwise.

B1: Mature human mitochondrial heat shock protein family D member 1 (HSPD1), P10809 27-573 (natural protein)
chain: AKDVKFGADARALMLQGVDLLADAVAVTMGPKGRTVIIEQSWGSPKVTKDGVTVAKSIDLKDKYKNIGAKLVQDVANNTNEEAGDGTTTATVLARSIAKEGFEKISKGANPVEIRRGVMLAVDAVIAELKKQSKPVTTPEEIAQVATISANGDKEIGNIISDAMKKVGRKGVITVKDGKTLNDELEIIEGMKFDRGYISPYFINTSKGQKCEFQDAYVLLSEKKISSIQSIVPALEIANAHRKPLVIIAEDVDGEALSTLVLNRLKVGLQVVAVKAPGFGDNRKNQLKDMAIATGGAVFGEEGLTLNLEDVQPHDLGKVGEVIVTKDDAMLLKGKGDKAQIEKRIQEIIEQLDVTTSEYEKEKLNERLAKLSDGVAVLKVGGTSDVEVNEKKDRVTDALNATRAAVEEGIVLGGGCALLRCIPALDSLTPANEDQKIGIEIIKRTLKIPAMTIAKNAGVEGSLIVEKIMQSSSEVGYDAMAGDFVNMVEKGIIDPTKVVRTALLDAAGVASLLTTAEVVVTEIPKEEKDPGMGAMGGMGGGMGGGMF
For orientation: stoichiometry N means the number of molecules, sites or subunits per partner or assembly. As for B1, the stoichiometry N amounted to 7.
